Data: paper PMC4545750

Biological target: Krimper Tudor2 domain (562-746) (D. melanogaster) (UniProt A1ZAC4)
Test: ITC

Sequence of UniProt A1ZAC4 (A1ZAC4 562-746): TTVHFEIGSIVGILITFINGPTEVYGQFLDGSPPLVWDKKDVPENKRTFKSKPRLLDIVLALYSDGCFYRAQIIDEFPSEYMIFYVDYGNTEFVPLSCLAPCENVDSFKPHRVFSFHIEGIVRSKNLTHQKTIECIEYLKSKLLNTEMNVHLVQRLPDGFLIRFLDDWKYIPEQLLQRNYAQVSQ

| Kd | Substance |
| --- | --- |
| 16.3 µM | Aubergine peptide (residues 6 to 18) with symmetrically di-methylated arginine 11 (from UniProt O76922 6-18) |
| 4.1 µM | Aubergine peptide (residues 6 to 18) with symmetrically di-methylated arginine 15 (from UniProt O76922 6-18) |
